Publication PMC12297416

Biological target: NusA (E. coli (endogenous in MG1655)) (UniProt P0AFF6)
Assay: single-molecule tracking in live cells; HaloTag fusions labelled with JFX549 in growing E. coli at 37 °C; 5 ms camera exposure; HMM fit of diffusion trajectories, 5-state models coarse-grained with a threshold at 1 µm^2/s (slow diffusion state = bound)

Q: What does the source list for “IF2-Domain-I-HaloTag (domain or fragment)”?
A: dwell time in the slow-diffusion state: 30 ms; occupancy in the slow state (after cell sorting by size): 11%; steady-state fraction in the slow-diffusion state: 14%
